# Test results: the Immune Epitope Database (IEDB)
# Columns and labels:
# Assay in all cases: IEDB peptide-MHC binding, purified MHC/competitive/fluorescence; filed as Kd, often an IC50 or EC50 that approximates it; ≥ and ≤ were set here for values at or beyond the usual limits of such assays
# Conditions in all cases: source organism: Rickettsia akari str. Hartford
# HLA-A*01:01 = biological target: HLA-A*01:01
# HLA-A*30:02 = biological target: HLA-A*30:02
# HLA-B*51:01 = biological target: HLA-B*51:01
# HLA-A*02:03 = biological target: HLA-A*02:03
# HLA-B*15:17 = biological target: HLA-B*15:17
# HLA-A*03:01 = biological target: HLA-A*03:01
# HLA-A*26:01 = biological target: HLA-A*26:01
# HLA-A*11:01 = biological target: HLA-A*11:01
# HLA-B*27:05 = biological target: HLA-B*27:05
# HLA-A*30:01 = biological target: HLA-A*30:01
sequence,measurement,setting,value
FTARIIIFS,Kd,HLA-A*01:01,≥ 5 µM
same,Kd,HLA-A*30:02,≥ 5 µM
same,Kd,HLA-B*51:01,≥ 20 µM
same,Kd,HLA-A*02:03,≥ 20 µM
same,Kd,HLA-B*15:17,≥ 20 µM
same,Kd,HLA-A*03:01,≥ 20 µM
same,Kd,HLA-A*26:01,≥ 20 µM
same,Kd,HLA-A*11:01,≥ 5 µM
same,Kd,HLA-B*27:05,≥ 5 µM
same,Kd,HLA-A*30:01,≥ 5 µM
